Assay results: the domain aggregation screens of Martell et al. (2025)

Assay: soluble fraction after stress (log2 fold change); higher = more stays soluble; pooled small domains, quantitative proteomics
Details: stress: 75 degC
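Note: 20 min heating vs room temperature control held 20 min.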

Sequence | soluble fraction (log2)
HMETEQVEMIRVVGMHVDEAKKALLDLGLSPEIKYEESSSYDAGTVLRASVQDGLMIDKGTNIVLTVAEA | 0.293
HMETFEKIKELAKKRGKALGQVEEDLGYGRNTLYKIKNSTPNAERIAEIANYFNVSTDYLLGRTDNPTIAK | 0.108
HMETFNMTQKEITRLRVINQAIDKVITIREAAELLGLSERQVIRLKGGVEKFGPAFIIHKNRGRKP | -1.57
HMETGLSNYEFKRIREQAEALLSDGQVRRINDLVDSIKNENAEKVIRVIRFLIDTEELILEDDRVSAKKS | -0.615
HMETIVGIDPDSKKKIVLKKGIKGRPDYLSFNKKNYSLPSELKEKNVSLEQALEIINDKKSNKKKIK | 0.369
HMETLSKVGSTGSEVRQIQTKLKNWGYFSDKVDGIYGEKTRAAVVWFQKKNGLTADGIAGPATLKAMGIYT | -0.705
HMETLSVRERMTSIISLLNKHEDIEFSKLFNISEGRLGVVVTFLALLELVKESLVDVIQNQPMSKLYIGKK | -0.278
HMETLTPQEHKVLLLAVKGRTNGEIASELGIAQNTVKNHLAHIYAKMGVGNRTELASEYLRRIH | -0.203
HMETTEELISKTVPISYADMAALTGILDGVKSARGDIQVDDRTSTIIIHDIQSSIDEMMRLIKILD | -1.04
HMETTMVEIKAEFTIRNRLDIPAMMEKAGYKDRGEFLSVLEKITGNYNWDRDVKKGDTFMVPSKLA | -1.75
HMETVPMIDLRGMTQEQAEKAIVGLGLTVGTVDHSSSDMPAGQVWFQSVEPKDEVAPGTKVNIIISTGS | 0.0577
HMETYNLDVGDSAVLQYQNVSRISVGNPDVLDAIPLDKSQILLTGKATGGAALIVWDSKGMHMEKVMVHPA | -0.428
HMETYTVSSKDGYANVRNEATVNSDLIAELKNGTLVTKFKEKGEWYYIEFEREDGTPFDYGYIHKSQLK | -0.00382
HMEVALEVPELRGLSMKQATNTLMASGFEVQKVGSGTIYAQFPLPGERLRTGYAVTIRGKTRDLG | -0.345
HMEVAPEKVLEALNELPEIYKIVLNLYAVENMSHKEIAKKLGISLGSSKSRLSRGRVMLNTLLNR | -1.3
HMEVDWLEVEKVIVSSSYSWMENSPKVKLLQEYIGVTADGIYGLGTWGAHRTHAVDLGFINLSYPIP | -0.129
HMEVEADEFQQLLRSGEYVQALDRARANQDIGLRQQQIVQIARHQAASGIQAGAMGSLASLYQF | -0.0286
HMEVHLMPGTVLLREYESNEYRVTVTPEGFYDLNGKVFKSLSAVARHITGVNWSGPRFFGVEP | -2.81
HMEVLSYYGSRGQEVVNIQTKLKQWGYYKGNIDGIFGNLTYQAVREFQRKNGLKVDGIVGPETLAALGLPT | -2.64
HMEVPQVETEKVEAKLKEAEVLLVKVTDSSLKANATETLAGLRNNLTLQTMDNNGIMAEAEKLLALLRES | 0.0802
HMEVPTGNHIRRWRKSLDITQVKLSSLSGVAQSIIAKIENETVDPRVSTLRKLVEALSRFENP | -1.89
HMEVQVGKQVRAFRETLGMTVQQFAERTGFSAALLAQIENRMVSPSLGTLVKIANTFGTTVSSFIG | -0.0249
HMEVSTDADFEAVGIRAELIPILQKLGFTTVAQLKEVKATKLFNDIPGMRKKLKLDAVQNPTLQEIEGWLK | -0.0412
HMEVTLEEKLSYVEEYAKVHSHFSFRDLLKKQASKTQIVVTFLAILELMKTGKIQITQEHIFDDIVITAK | 0.0631
HMEVTYQETLRVLYNAIDKLPPQTKEIILIGLDGKDNNEIAATLNISVNTVKTLKKNAYKTLRELLVD | 0.0283
HMEWNPEKQHLLENYITNYSRQLNDTGLFYKNLDWNYIFNLVGVDDQEFLMLKIDEIYDESINVY | -1.74

Sequence | soluble fraction (log2)
HMEWNREQLEQIVLQHIRKHGFITRATYTELTGRLKNSALADLKSFAAEGIIKRVGRGNQMHFIVPL | -2.35
HMEWTDHLAEELRSLAVEGEHLEIIANKLGISPGSARAKLVNLNIYNDYQLAHIERLEADTLQAK | -0.349
HMEYFDDEELDRYKGRTSDSFTDDEAEEFREVMMTMHPEEVKAWNRSLILRDVAMPDQIKDDYIMLAG | -0.141
HMEYKYNPADYPYPLNEDIEKVYSAYREKSIGKLEAAVQNLYYTLKQARRDNILSDVKVNEMQQYFLALRN | -0.857
HMEYNLTLEELNRDLYIRGEIWNVGDVVKTTDGDEGTIIRKGTNYVVFEDLRRVWLHNLEEVK | -1.51
HMEYREFEAMTIRAIATLPPTQGHVIMLSRFEGLDNKEIALRLNLSLQTVKNTLTQGLKELKNKMRKLP | -2.02
HMEYSAAYDRELESIFNLTERGKWEEAEAEVGLLLQQYPEDKTLLRISEWVATQKTILREQAIEDRIRS | -0.0776
HMEYSYKLIDLLVDRFSEEGVDPEEAREYINLFHRFSQGLDPDKRDITKYSWDELYRTVNDKKDS | 0.664
HMEYTVNHYPEKHRFEVVEDGLTAYVEYRLRGDALDIIHTIVPKNLEGRGIAATLVETAYKYAKEQ | -1.27
HMFAAIFADDSGFTTRSKRFGPYVEEIAADWQAVKQLSDEDAKQALVPLVKKIELALSTLQQFVSSV | -0.166
HMFAATGTVNTEGSSLRLRAEASTSSSVLKQLSHGTQVDVLSGLVDGWYQVSYKGTTGYVSGEYLTVTE | -0.704
HMFADLNPDENYGQVYIRTNTIDNLYQTLLDNKTRIHPNGLLELKPWGQKEFSILDPDKNLLTFGES | -0.00771
HMFAERLKELRKMRRFSQHALAERLGISQQAVGKWETGKSTPDPATLREIADIFEVSVDLLLGR | -1.17
HMFDDEELDRFAGVPADAYLPADEDEFREVFYTMRPGEVVEWVRSLELRHIEIPNGIKDEIFMMIR | -3.97
HMFDEDKLIISIGSKVRIIREPYFGTIGKVVELPPELVKMDTEAMLRVAIIKLDDGEKVTIPRANLEVILS | -2.43
HMFDEVKDAARRLAALLDQAGGTLTLNDKSAPEEVAALTGMSKKVFKRALGHLMSRSEVVVADGRITKKD | -0.709
HMFDGRSDAEKTLDLIKTAIDNILKGGAIQEYKIGTRTAKKYDMAELQVLKGEYAAMVAREKQAETMA | -0.412
HMFDGVAAGKPAILDALEDAGGFLPLNSKSSVEEIQASFSFSKRVFKQLIGMLYKERKIVITDDGIRLAD | -0.279
HMFDGYQWLKRDIIRGVYQPEEKLRMSLLTNRYGLGVGPLREALSQLVAEHLVTVVSQKGYRVAPM | -0.387
HMFDKNKPVVVEGENAEVALKKVSKYFNVPTEKLDYTLLGQKSAGLLGIGSKVYQFKVWLKREIP | -0.249
HMFDLENIRLTLARRLNVAAHLRPKYVAGFTLLLKQNFPEQNAEDLLNRLEHNQWLKVNQREIEYSPRLLM | -1.63
HMFDPAKQMQRIRKYAGMNRKEFSEWLNIPYRTMTDWELGNRTMPVYLLELIVYKVNHEIANA | 0.588
HMFDREKFIKLGQEFARVAFENVNKRATDRALKTAAKHYGLPSADELLARLGSSEIAARDVVAELYPNL | -0.856
HMFDSYDIYDEAGNTVNTVKGKLSWGHLLEIYDRFDNHIGTVQERVLTFLPKFLMYINGQEIGEIR | -0.164
HMFDVNSMIAANIVAILKKQNRKQIDLAGALQTNKQTISKMLNGSRMINAIELKRIAEFLGVKMEELTKL | -2.23
HMFDVRWEQGYALAAAYAQEYGNLDVPRDYKTADGKKLGRWIQSQEQAYEQKKLSEEQISRLEMIGMQWG | -0.98

Sequence | soluble fraction (log2)
HMFEDEPSEREIRISTLLAAFLKQEDGGTAVSRERFLKENSDVAEDLQILLEMADMIQEMAGP | -0.546
HMFEKIDINFADIHQLKGLPLNSEQINSIIEYRNQNGFIENIYDLKNVNGISIDKVHELKSYIFIIDV | -2.58
HMFENPRALLEMMISLGNEQGLINMARDIVSAGEFRRLELAAGGDRRKLARMLIDHLVEVAPRLP | -0.915
HMFEQFEVENLQELQQEWGDKFNHNLEMARRAFMNFATPEAVKVLEETGMGNHPELLKVFARIGEVLAED | -0.968
HMFERINLIGVNGTTKKRSALVRLLDGEIVKIGVGDSLNGGQVVDISPATLTYLKSGKSIMLTLPK | -1.79
HMFGQRLRLARKRAGLSMQALAQRMSPPVTAQAISKYEADRMMPSSAVLVGLGKALGVSLDFLMGGQ | -2.14
HMFHFELNAAKQALEDRKTIDRAKGILMRQRGMSEDDAYKLLRTTAMSQNRKVIDVAQALVTAADLL | -0.632
HMFINTVELGRAIKRRREELGLSLRDVADVTNVSASTLSRIENGTGKPDADNIARLTGWLDMPIDRVM | -0.161
HMFIRINQTQNSPRKSVQIVESKRDGHKVRTKILRHVGIAMDDVELQKLKSLAQDIIAKMTVETENASKQ | -0.529
HMFKINQKVKLIAPLPYLKTSENMPMLRPPDLVAIDEIGEVLSLKSPETVEVRFRRGSFLIDIDKLEKVD | -1.77
HMFKYLLDTNIVIYVIKKRPIEVMGVFNQNANRMAISAITFSELQHGAEKSVRVQENLNAIEEFTTLIDI | -0.0448
HMFKYRELLDWAKNRFDDLEVSIAPKALALLVESIGTDLRLLDSEIQKLSMYKPLEMISTNDVEDLVA | -1.01
HMFLTDHEVSKVARKRAHAEYLSSLSWRQRTFGDHGERSKNFEAWYKEHSHLYETEKLYKELYKN | -1.03
HMFLTPLEEARLVIEEIVIPKNIAVDLSPRPSALRKQQHELIAHYQLKSFSVGNERTKRLRILPKVI | 0.229
HMFMLQAKRVPVSELENFKGIVAEDVVSQSRALILPRGSNLSWLSSSAMQNLSTRLALEGVESISIYL | -2.68
HMFMVAGHLSEKNGYFYAVINYNDSLGNRKTKWMSTGLTVKGNKKRAEAILAEKRRTFQPDEPV | -1.71
HMFNDPTMEDALVNLKGITNEVLSYLSSSKIKKLEELAEMSVPELKDIVENISDDEASALIMEARKPWF | -0.373
HMFNEFEDIPDIISAEGIDPAMREEVAANLKKYYKNPDAMLALAPLEREYYEKLVGILSEKIELKKEN | 0.802
HMFNFPEEVRVQLAKSEQLRNLLIPMSETVRDALSGEELWFGRTIFNTTSKKIESWTNPGVWVE | -1.39
HMFNIIARQEIDEILYEYKIENSEDYKNRDPEELAEIYENIKTVQENHDLSDDDVEELLKSIFSDY | -1.25
HMFNKTKVPNFIDMNYYEEIEGNSEYDKFNFADPITKNDDTKAPGTVIDQTPEKGTRIDEEKTVIQLTIA | 0.114
HMFNRAVSDNEALQVREHFDRDATVMSLAKKYGVSTVTIQRILLGKTYRNVGGPLFDKATLKKRMGN | -1.2
HMFNVKAYEKAVKSYITKRKPLGEALDEEIMDELSVKFGIVDDALEDLFKQIQDAGISIVDKDGNPSPLAL | -0.792
HMFPELEPDEQLIADLLRKTNNLQINIITVRTGLPINRVTALLFQMEMKGVVRPLAGGTYHLLV | -2.14
HMFPELSPEEQLIVEVLSKTNDLQVNLISVKTNIDISRLTSLLFTLEMKGVIKTFAGGMYHLL | -1.19
